According to patent US10512676B2, “Formulations comprising recombinant acid alpha-glucosidase” (Amicus Therapeutics, Inc., priority 2016, dated 2019):

Key:
[1] = Plasma total GAA protein pharmacokinetics, phase 1/2 study in adults with Pompe disease; format: in vivo, human; conditions: for Total GAA Protein AUC0-t / Total GAA Protein AUC0-∞ / Total GAA Protein Cmax: n = 8, geometric mean
Description: Mean total GAA protein and miglustat PK results from the first 8 Cohort 1 patients through Visit 9 and the first 2 Cohort 3 patients were assessed.

Gaa knockout mice = assay: Glycogen reduction in Gaa-knockout mice; format: in vivo, mouse
Description: Animals were given two IV bolus administrations (every other week); tissues were harvested two weeks after the last dose and analyzed for acid α-glucosidase activity and glycogen content.
Tissues were collected 14 days after last enzyme dose for glycogen measurement.

[2] = Cohort 1, 5 mg/kg alone, n = 8, arithmetic mean
[3] = Cohort 1, 10 mg/kg alone, n = 8, arithmetic mean
[4] = Cohort 1, 20 mg/kg alone, n = 8, arithmetic mean
[5] = Cohort 1, ATB200 20 mg/kg + miglustat high MD, n = 8, arithmetic mean
[6] = Cohort 1, ATB200 20 mg/kg + miglustat high SD, n = 7, arithmetic mean
[7] = Cohort 1, ATB200 20 mg/kg + miglustat low MD, n = 8, arithmetic mean
[8] = Cohort 1, ATB200 20 mg/kg + miglustat low SD, n = 8, arithmetic mean
[9] = Cohort 3, ATB200 20 mg/kg + miglustat high MD (first Cohort 3 line), n = 2, arithmetic mean
[10] = Cohort 3, ATB200 20 mg/kg + miglustat high MD (second Cohort 3 line), n = 2, arithmetic mean

## ATB200: recombinant human acid α-glucosidase expressed in CHO cells with increased content of M6P-bearing N-glycans
[1]; ATB200 20 mg/kg with miglustat 260 mg relative to ATB200 alone
  increase of distribution half-life (α-phase): 45%
[1]; ATB200 20 mg/kg with miglustat 260 mg relative to ATB200 alone at 20 mg/kg
  increase of total GAA protein exposure (AUC): approximately 25%
[1]; ATB200 given alone, 5, 10, 20 mg/kg
  dose proportionality of plasma total GAA protein: increases in a slightly greater-than-dose-proportional manner
[1]; [2]
  Total GAA Protein CLT: 2.1 L/h
  Total GAA Protein VSS: 4.62 L
  Total GAA Protein αt1/2: 1.1 h
  Total GAA Protein βt1/2: 1.9 h
[1]; Cohort 1, 5 mg/kg alone
  Total GAA Protein AUC0-t: 215 ng·h/mL
  Total GAA Protein AUC0-∞: 218 ng·h/mL
  Total GAA Protein Cmax: 61 ng/mL
[1]; Cohort 1, 5 mg/kg alone, n = 8, median
  Total GAA Protein tmax: 3.8 h
[1]; [3]
  Total GAA Protein CLT: 1.59 L/h
  Total GAA Protein VSS: 3.87 L
  Total GAA Protein αt1/2: 1.3 h
  Total GAA Protein βt1/2: 1.6 h
[1]; Cohort 1, 10 mg/kg alone
  Total GAA Protein AUC0-t: 578 ng·h/mL
  Total GAA Protein AUC0-∞: 584 ng·h/mL
  Total GAA Protein Cmax: 144 ng/mL
[1]; [4]
  Total GAA Protein CLT: 1.22 L/h
  Total GAA Protein VSS: 3.52 L
  Total GAA Protein αt1/2: 1.5 h
  Total GAA Protein βt1/2: 2.1 h
[1]; Cohort 1, 20 mg/kg alone
  Total GAA Protein AUC0-t: 1508 ng·h/mL
  Total GAA Protein AUC0-∞: 1512 ng·h/mL
  Total GAA Protein Cmax: 345 ng/mL
[1]; [5]
  Total GAA Protein CLT: 0.98 L/h
  Total GAA Protein αt1/2: 2.1 h
  Total GAA Protein βt1/2: 2.5 h
[1]; [6]
  Total GAA Protein CLT: 0.98 L/h
  Total GAA Protein αt1/2: 2.3 h
  Total GAA Protein βt1/2: 2.7 h
[1]; [7]
  Total GAA Protein CLT: 1.02 L/h
  Total GAA Protein αt1/2: 1.9 h
  Total GAA Protein βt1/2: 2.5 h
[1]; [8]
  Total GAA Protein CLT: 1.09 L/h
  Total GAA Protein αt1/2: 1.8 h
  Total GAA Protein βt1/2: 2.4 h
[1]; [9]
  Total GAA Protein CLT: 0.69 L/h
  Total GAA Protein αt1/2: 2 h
  Total GAA Protein βt1/2: 2.4 h
[1]; [10]
  Total GAA Protein CLT: 0.66 L/h
  Total GAA Protein αt1/2: 1.9 h
  Total GAA Protein βt1/2: 2.6 h
[1]; in vivo
  volume of distribution: relatively high volume of distribution
Gaa knockout mice; 20 mg/kg IV every other week, 4 injections, FIG. 13
  relative reduction of glycogen in quadriceps and triceps: greater reduction of glycogen than Lumizyme®
Gaa knockout mice; 5, 10, 20 mg/kg, two IV bolus administrations every other week
  tissue glycogen depletion: deplete tissue glycogen in acid α-glucosidase (Gaa) knockout mice in a dose-dependent fashion
Gaa knockout mice; ATB200 10 and 20 mg/kg vs Lumizyme 20 mg/kg
  reduction of glycogen levels in skeletal muscles: significantly better reduction of glycogen levels in skeletal muscles than Lumizyme®
